The target of assay [1] is T1, TmrAB G131A^TmrA (Thermus thermophilus, UniProt Q72J05 1-600; Q72J04 1-578, G131A).
T1 construct: TmrA, Thermus thermophilus, the chain of TmrAB with the canonical Walker B motif; TmrB, Thermus thermophilus, the chain of TmrAB with the non-canonical Walker B motif; also called G131A^TmrA variant; source: cultured at room temperature for 16 hours after induction
T1 sequence 1: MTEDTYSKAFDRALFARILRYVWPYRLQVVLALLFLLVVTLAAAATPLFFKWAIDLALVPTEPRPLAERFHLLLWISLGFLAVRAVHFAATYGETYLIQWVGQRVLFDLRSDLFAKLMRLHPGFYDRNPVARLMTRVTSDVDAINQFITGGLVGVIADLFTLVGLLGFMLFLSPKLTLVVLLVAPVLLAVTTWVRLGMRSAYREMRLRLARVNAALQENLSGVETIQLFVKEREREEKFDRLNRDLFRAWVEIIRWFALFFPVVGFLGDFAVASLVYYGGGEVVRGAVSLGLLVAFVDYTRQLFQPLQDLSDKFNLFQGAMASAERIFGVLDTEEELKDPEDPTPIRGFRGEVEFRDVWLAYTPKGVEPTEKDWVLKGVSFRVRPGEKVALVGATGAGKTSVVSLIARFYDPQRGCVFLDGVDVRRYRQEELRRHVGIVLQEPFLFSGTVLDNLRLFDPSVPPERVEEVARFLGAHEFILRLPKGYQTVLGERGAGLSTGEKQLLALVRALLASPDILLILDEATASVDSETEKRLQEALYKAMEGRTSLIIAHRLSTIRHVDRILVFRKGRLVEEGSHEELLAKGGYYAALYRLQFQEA
T1 sequence 2: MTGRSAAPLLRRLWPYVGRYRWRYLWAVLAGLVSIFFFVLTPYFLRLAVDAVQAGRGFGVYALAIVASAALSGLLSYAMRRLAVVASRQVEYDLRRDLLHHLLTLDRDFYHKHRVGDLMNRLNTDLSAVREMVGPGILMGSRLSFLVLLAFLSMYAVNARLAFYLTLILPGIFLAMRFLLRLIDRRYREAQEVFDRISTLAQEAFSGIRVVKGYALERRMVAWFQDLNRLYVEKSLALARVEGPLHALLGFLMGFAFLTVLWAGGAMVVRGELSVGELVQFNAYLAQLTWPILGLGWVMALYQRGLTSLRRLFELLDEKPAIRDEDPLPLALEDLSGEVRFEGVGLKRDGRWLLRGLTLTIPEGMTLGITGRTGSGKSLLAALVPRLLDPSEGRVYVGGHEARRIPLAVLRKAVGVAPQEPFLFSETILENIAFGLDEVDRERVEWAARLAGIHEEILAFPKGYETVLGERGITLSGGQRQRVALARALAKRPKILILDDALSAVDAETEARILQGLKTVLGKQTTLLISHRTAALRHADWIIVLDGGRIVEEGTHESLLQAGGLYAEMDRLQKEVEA
The experiment in a line: fluorescence polarisation; 1.7 uM TmrAB with 50 nM RRY(C^Fluorescein)KSTEL in SEC buffer (20 mM HEPES, 150 mM NaCl, pH 7, 0.05% ß-DDM), 15 minutes on ice, in the absence or presence of 5 mM ATP and 10 mM MgCl2; read at 25°C (the results say 4°C); signal normalized to WT without ATP. The conditions noted are these: both partners purified.

For assay [2], the target named is T2, TmrAB D117A^TmrB (Thermus thermophilus, UniProt Q72J05 1-600; Q72J04 1-578, D117A).
T2 construct: TmrA, Thermus thermophilus, the chain of TmrAB with the canonical Walker B motif; TmrB, Thermus thermophilus, the chain of TmrAB with the non-canonical Walker B motif
T2 sequence 1: T1 sequence 1 with A131G
T2 sequence 2: T1 sequence 2 with D117A
Described as above. As to conditions: both partners purified.

Where a chain is given by its changes, count along the chain named. No end group written: not given here. fluorescein = fluorescein label attached to the Cys side chain

B1: fluorescent transport substrate peptide RRY(C^Fluorescein)KSTEL (peptide)
peptide: RRYC(fluorescein)KSTEL
notes: fluorescein-labelled transport substrate peptide of TmrAB; also called fluorescently-labeled peptide substrate; peptide substrate; source: bought: Genscript
B1: the binding result in assay [1] and in assay [2] was “binds” in each case.
